Values joined by “and” are separate entries in the source; they are usually repeats but may differ in a detail not shown here. Identical values can stand only once.
Assays:
[1] = target: T1, human B-lymphocyte antigen CD19 (human, UniProt P15391 20-556); assay: FACS binding on Daudi cells, goat anti-mouse RPE detection
T1 construct: whole, on cells; Always presented on cells; No soluble CD19 was used; also called hCD19; human CD 19
T1 sequence (looked up): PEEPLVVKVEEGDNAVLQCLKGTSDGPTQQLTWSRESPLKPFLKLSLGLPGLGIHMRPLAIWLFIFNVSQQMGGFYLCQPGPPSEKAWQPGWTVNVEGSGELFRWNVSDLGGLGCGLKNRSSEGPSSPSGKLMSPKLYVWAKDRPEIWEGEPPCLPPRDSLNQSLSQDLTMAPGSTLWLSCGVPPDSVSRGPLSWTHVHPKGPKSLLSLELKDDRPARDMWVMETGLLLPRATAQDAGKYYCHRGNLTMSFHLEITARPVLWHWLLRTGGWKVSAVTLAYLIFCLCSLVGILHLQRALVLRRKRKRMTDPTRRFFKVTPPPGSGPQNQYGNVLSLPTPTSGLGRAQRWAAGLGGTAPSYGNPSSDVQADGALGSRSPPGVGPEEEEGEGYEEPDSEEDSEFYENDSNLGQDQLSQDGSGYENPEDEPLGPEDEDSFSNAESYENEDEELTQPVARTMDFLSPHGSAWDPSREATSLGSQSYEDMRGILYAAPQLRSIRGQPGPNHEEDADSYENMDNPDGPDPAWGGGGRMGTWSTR

[2] = target: T1, human B-lymphocyte antigen CD19; assay: cell ELISA on human CD19-transfected NIH3T3 cells against untransfected NIH3T3 cells
[3] = target: T1, human B-lymphocyte antigen CD19; assay: cell-based or functional assay
mouse CD19 = target: T2, mouse CD19 (mouse, UniProt P25918 19-547); assay: FACS on B-cells of the respective species
T2 construct: whole, on cells
T2 sequence (looked up): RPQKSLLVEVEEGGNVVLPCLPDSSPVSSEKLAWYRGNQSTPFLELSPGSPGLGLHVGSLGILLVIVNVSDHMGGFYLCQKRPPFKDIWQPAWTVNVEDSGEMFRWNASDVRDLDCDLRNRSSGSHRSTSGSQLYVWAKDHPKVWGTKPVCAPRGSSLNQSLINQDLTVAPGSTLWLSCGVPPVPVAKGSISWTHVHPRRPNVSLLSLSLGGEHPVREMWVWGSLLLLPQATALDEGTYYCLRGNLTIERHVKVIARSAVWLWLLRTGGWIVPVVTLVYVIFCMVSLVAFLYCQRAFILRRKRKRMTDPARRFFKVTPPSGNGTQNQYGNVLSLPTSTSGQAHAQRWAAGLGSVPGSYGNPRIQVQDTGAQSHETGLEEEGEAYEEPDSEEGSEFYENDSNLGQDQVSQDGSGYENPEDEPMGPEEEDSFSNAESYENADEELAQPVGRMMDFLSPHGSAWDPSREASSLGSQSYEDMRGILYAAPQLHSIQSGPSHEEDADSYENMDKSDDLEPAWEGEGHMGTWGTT

cynomolgus CD19 = target: T3, cynomolgus CD19 (cynomolgus, UniProt A0A2K5W8L9 20-557); assay: FACS on B-cells of the respective species
T3 construct: whole, on cells
T3 sequence: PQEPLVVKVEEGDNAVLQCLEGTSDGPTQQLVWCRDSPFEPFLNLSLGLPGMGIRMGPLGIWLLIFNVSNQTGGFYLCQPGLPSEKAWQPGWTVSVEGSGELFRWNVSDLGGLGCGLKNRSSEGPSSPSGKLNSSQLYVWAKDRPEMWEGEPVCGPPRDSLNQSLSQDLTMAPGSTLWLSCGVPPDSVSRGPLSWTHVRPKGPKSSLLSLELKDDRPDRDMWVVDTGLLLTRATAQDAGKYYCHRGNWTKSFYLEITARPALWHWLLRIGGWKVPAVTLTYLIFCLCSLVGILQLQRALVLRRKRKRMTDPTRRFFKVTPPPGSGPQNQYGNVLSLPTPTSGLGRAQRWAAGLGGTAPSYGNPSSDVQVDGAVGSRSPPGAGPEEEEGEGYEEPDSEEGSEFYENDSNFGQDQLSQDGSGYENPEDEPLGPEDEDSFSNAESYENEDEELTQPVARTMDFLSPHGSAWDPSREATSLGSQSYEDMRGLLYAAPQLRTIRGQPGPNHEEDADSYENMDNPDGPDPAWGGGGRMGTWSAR

rabbit CD19 = target: T4, rabbit CD19 (rabbit, UniProt G1TWR4 20-543); assay: FACS on B-cells of the respective species
T4 construct: whole, on cells
T4 sequence: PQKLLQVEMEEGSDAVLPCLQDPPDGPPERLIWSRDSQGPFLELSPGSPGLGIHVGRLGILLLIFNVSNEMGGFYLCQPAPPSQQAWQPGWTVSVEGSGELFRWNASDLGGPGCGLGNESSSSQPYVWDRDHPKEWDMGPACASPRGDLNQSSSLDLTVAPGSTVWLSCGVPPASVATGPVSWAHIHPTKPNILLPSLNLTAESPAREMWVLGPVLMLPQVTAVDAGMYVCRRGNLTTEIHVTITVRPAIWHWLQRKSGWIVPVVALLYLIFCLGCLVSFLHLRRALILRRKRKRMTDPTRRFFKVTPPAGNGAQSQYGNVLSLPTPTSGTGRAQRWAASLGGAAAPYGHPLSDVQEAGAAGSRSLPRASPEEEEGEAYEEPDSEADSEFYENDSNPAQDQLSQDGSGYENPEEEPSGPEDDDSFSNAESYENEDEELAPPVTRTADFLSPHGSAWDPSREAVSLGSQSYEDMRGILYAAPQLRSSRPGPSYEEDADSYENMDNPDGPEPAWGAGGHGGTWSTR

EC50 [1]: 1.45 nM
ratio OD NIH3T3 CD 19 to OD NIH3T3 untransfected [2]: 11.4
EC50 of inhibition of Ca2+ influx in anti-IgM activated Ramos cells [3]: 0.37 nM and 56 ng/ml
binding result (mouse CD19): no binding
binding result (cynomolgus CD19): no binding
binding result (rabbit CD19): no binding
B1: Mab381 (antibody, V domains shown)
VH: QVQLQQSGAELVRPGSSMKISCKASGYAFSSYWMNWVKQRPGQGLEWIGQIYPGDGDINYSGKFKGKVTLTADKSSSTAYMQLSSLTSEDSAVYFCARTITTVVGYVMDYWGQGTSVTVSS
VL: DIVMTQSHKFMSTSVGDRVSITCKASQDVGTVVAWYQQKPGQSPKLLIYWASTRHTGVPDRFTGSGSGTDFTLTISNVQSEDLADYFCQQYSSYPYTFGGGTKLEIKR
notes: Murine monoclonal antibody purified from hybridoma 8C3
